Consider four substances from US20070031442A1.

Assay [1] concerns the target soluble CD8αα (human) (UniProt P01732). In words: surface plasmon resonance. Background: SPR reads the build-up and loss of mass on a sensor chip optically.
Assay [2] shares this target. Description: method not given.
Assay [3] has the same target. Description: surface plasmon resonance, biotinylated pMHCI monomer.
Assay [4] shares this target. Description: surface plasmon resonance with sCD8αα wt; mean KD (n=3) printed over the bar, error bar drawn; sheet caption 'HLA A*0201 [..] tetramers'.

For “245A substituted HLA A*68011 biotinylated pMHCI (from UniProt P61769 21-119) (peptide-MHC)”, the Kd (commonly a measure of binding affinity in units of concentration) in assay [1] came out at 102 µM.

In assay [2], “A2Kb chimeric class I pMHCI (HLA A2 with the α3 domain of murine H-2K^b) (from UniProt P61769 21-119) (peptide-MHC)” registered a dissociation constant (Kd) of less than 5 µM.

For the substance “wild type HLA A*68011 biotinylated pMHCI (from UniProt P61769 21-119) (peptide-MHC)”, the dissociation constant Kd in assay [1] was determined as 980 µM.

For “wild type HLA A*0201 biotinylated pMHCI monomer (from UniProt P61769 21-119) (peptide-MHC)”, the dissociation constant Kd in assay [3] was 135 µM; in assay [2], 128 µM; in assay [4], 128 µM.
